Like-named read-outs stand apart in the source and are kept apart here.
Legend:
Ol1WSCP [1] = assay: SEC
Ol1WSCP [2] = assay: SEC; remark: listed apart in the source

Work on Ol1WSCP (natural protein) yielded a stoichiometry N (Ol1WSCP [1]) of 4 and a stoichiometry N (Ol1WSCP [2]) of 4.
